Reference: patent publication US20260242478A1 (published 2026)
Where no end group is shown, it is not given here.

B1: Phage-3401 (peptide)
peptide: FRDYCVPPWMCVGM
B2: Phage-3621 (peptide)
peptide: HDYACVPKWMCEGL
B3: Phage-3907 (peptide)
peptide: SLERCEPPWMCFGF
notes: tested as crude clonal phage supernatant
B4: Phage-3629 (peptide)
peptide: DLMMCVPAWMCEGF
B5: Phage-3620 (peptide)
peptide: DERMCVPEWMCMGM
B6: Phage-3474 (peptide)
peptide: LERACKPMWMCEGF
B7: Phage-3475 (peptide)
peptide: EDRICEPDWMCAGF
B8: Phage-3403 (peptide)
peptide: VERYCVPQWMCDGF
B9: Phage-3628 (peptide)
peptide: VHPMCTPLWMCVGF
B10: Phage-3624 (peptide)
peptide: DDRVCRPDWMCNGF
B11: Phage-3471 (peptide)
peptide: SVPSCVPPWMCIGF
B12: Phage-3619 (peptide)
peptide: ADHMCVPQWMCSGF
B13: Phage-3473 (peptide)
peptide: EGTWCRPAWMCDGF
B14: Phage-3904 (peptide)
peptide: GYHLCIPEWMCSGL
notes: as for B3
B15: Phage-3402 (peptide)
peptide: QFLVCKPSWMCNGF
B16: Phage-3472 (peptide)
peptide: QEVWCRPIWMCEGF
B17: Phage-3465 (peptide)
peptide: ETHFCKPKWMCVGF
modifications: cysteine pairing not given here; also: fused to pIII of bacteriophage
B18: Phage-3905 (peptide)
peptide: ADVLCRPHWMCAGF
notes: as for B3
B19: Phage-3901 (peptide)
peptide: YVMMCVPQWMCTAK
notes: as for B3
B20: Phage-3618 (peptide)
peptide: VVAVCKPLWMCEAF
B21: Phage-3464 (peptide)
peptide: EIKHCIPEWMCSGF
modifications: cysteine pairing not given here; also: fused to pIII of bacteriophage
B22: Phage-3627 (peptide)
peptide: LAVKCEPAWMCTGF
B23: Phage-3898 (peptide)
peptide: ESQYCVPRWMCDGF
notes: as for B3
B24: Phage-3625 (peptide)
peptide: DWVMCKPEWMCAGF
B25: Phage-3906 (peptide)
peptide: SDALCRPHWMCAGF
notes: as for B3
B26: Phage-3902 (peptide)
peptide: GHMYCSPLWMCEGF
notes: as for B3
B27: Phage-3903 (peptide)
peptide: LGPMCRPNWMCVGL
notes: as for B3
B28: Phage-3622 (peptide)
peptide: YMMKCIPEWMCTGL
B29: Phage-3463 (peptide)
peptide: EVLLCKPEWMCTGF
modifications: cysteine pairing not given here; also: fused to pIII of bacteriophage
B30: Phage-3468 (peptide)
peptide: TNPMCVPEWMCYGF
B31: Phage-3908 (peptide)
peptide: TERMCSPSWMCDGF
notes: as for B3
B32: Phage-3626 (peptide)
peptide: AGYACVPSWMCEGF
B33: Phage-3900 (peptide)
peptide: GNDYCVPAWMCAGF
notes: as for B3
B34: Phage-3404 (peptide)
peptide: AALRCVPTWMCEGF
B35: Phage-3400 (peptide)
peptide: FERLCIPEWMCSAF
B36: Phage-3623 (peptide)
peptide: IVKFCIPQWMCDGF
B37: Phage-3630 (peptide)
peptide: ELHLCIPSWMCTGL
B38: Phage-3899 (peptide)
peptide: FERVCVPAWMCAGF
notes: as for B3
B39: Phage-3470 (peptide)
peptide: VDQVCIPDWMCNGF
B40: Phage-3466 (peptide)
peptide: LEAACRPMWMCLGF
modifications: cysteine pairing not given here; also: fused to pIII of bacteriophage
B41: Phage-3469 (peptide)
peptide: EIVKCVPPWMCSGI
B42: Phage-3467 (peptide)
peptide: WEARCQPTWMCTGF
modifications: cysteine pairing not given here; also: fused to pIII of bacteriophage

Assays:
PSMA Fab [1] = target: T1, PSMA Fab; assay: phage ELISA, clonal phage on captured PSMA Fab pre-incubated with PSMA antigen as competitor, anti-M13 HRP detection
T1 construct: In the phage ELISA the PSMA Fab was biotinylated and captured on neutravidin coated plates; also called anti-PSMA Fab; 006 PSMA Fab
Protocol: (§1) Clonal phage were harvested as crude supernatants and screened via standard ELISAs. […] Prior to the addition of clonal phage. wells were incubated with blocking buffer and PSMA antigen or blocking buffer alone. Without washing or aspirating, clonal phage supernatants were then added to the wells and incubated for a short time. Wells were then washed followed by detection of bound phage using a horse radish conjugated anti-M13 antibody.

PSMA Fab [2] = target: T1, PSMA Fab; assay: phage ELISA, clonal phage on biotinylated PSMA Fab captured on neutravidin plate, anti-M13 HRP detection;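 further: crude clonal phage supernatants added to wells preincubated with PSMA antigen in blocking buffer or with blocking buffer only, giving a competition and a no-competitor control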
Protocol: as §1

Anti-PSMA Fab [3] = target: T2, Anti-PSMA Fab; assay: clonal phage ELISA; biotinylated anti-PSMA Fab on neutravidin plate; anti-M13 HRP detection; no PSMA added
T2 construct: Biotinylated and captured on neutravidin plates in the phage ELISA; also called 006 PSMA Fab
Protocol: as §1

Anti-PSMA Fab [4] = target: T2, Anti-PSMA Fab; assay: clonal phage ELISA; biotinylated anti-PSMA Fab on neutravidin plate; anti-M13 HRP detection; competitor: PSMA antigen pre-added
Protocol: as §1

PSMA Fab (006 PSMA Fab) [5] = target: T3, PSMA Fab (006 PSMA Fab); assay: phage ELISA; PSMA Fab on plate pre-incubated with PSMA antigen as competitor, anti-M13 HRP detection;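 further: crude clonal phage supernatants added to Fab-coated wells still holding PSMA antigen in blocking buffer, with bound phage as read-out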
T3 construct: also called Anti-PSMA Fab; anti-PSMA Fab
Protocol: as §1

PSMA Fab (006 PSMA Fab) [6] = target: T3, PSMA Fab (006 PSMA Fab); assay: phage ELISA; biotinylated PSMA Fab on neutravidin plate, clonal phage supernatant, anti-M13 HRP detection;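 further: wells preincubated with PSMA antigen in blocking buffer or with blocking buffer only before clonal phage were added for a short incubation, then bound phage detected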
Protocol: as §1

PSMA Fab [7] = target: T4, PSMA Fab; assay: clonal phage ELISA; biotinylated PSMA Fab on neutravidin plate, wells first incubated with PSMA antigen as competitor; anti-M13 HRP detection
T4 construct: also called Anti-PSMA Fab; 006 PSMA Fab
Protocol: as §1

PSMA Fab [8] = target: T4, PSMA Fab; assay: clonal phage ELISA; biotinylated PSMA Fab on neutravidin plate, blocking buffer alone; anti-M13 HRP detection;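 further: crude clonal phage supernatants added without washing to wells pretreated with blocking buffer with or without PSMA antigen, short incubation, then washed before detecting bound phage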
Protocol: as §1

Row | Binder | Phage binding ELISA signal, Anti-PSMA Fab (Anti-PSMA Fab [3]) | Phage binding ELISA signal, Anti-PSMA Fab with PSMA antigen (Anti-PSMA Fab [4]) | phage binding ELISA signal, Anti-PSMA Fab in the presence of PSMA (PSMA Fab [7]) | Phage binding ELISA signal, Anti-PSMA Fab (PSMA Fab [8]) | further results
1 | B1 |  |  |  |  | Phage binding ELISA signal, Anti-PSMA Fab in presence of PSMA (PSMA Fab [1]): 0.0791; Phage binding ELISA signal, Anti-PSMA Fab (PSMA Fab [2]): 1.8
2 | B2 | 1.57 | 0.0818 |  |  | 
3 | B3 |  |  |  |  | Phage binding ELISA signal, Anti-PSMA Fab in presence of PSMA antigen (PSMA Fab (006 PSMA Fab) [5]): 0.0697; Phage binding ELISA signal, Anti-PSMA Fab (PSMA Fab (006 PSMA Fab) [6]): 1.06
4 | B4 | 1.55 | 0.0929 |  |  | 
5 | B5 | 1.57 | 0.0714 |  |  | 
6 | B6 |  |  | 0.0863 | 1.73 | 
7 | B7 |  |  | 0.105 | 1.73 | 
8 | B8 |  |  |  |  | Phage binding ELISA signal, Anti-PSMA Fab in presence of PSMA (PSMA Fab [1]): 0.117; Phage binding ELISA signal, Anti-PSMA Fab (PSMA Fab [2]): 1.8
9 | B9 | 1.55 | 0.0993 |  |  | 
10 | B10 | 1.56 | 0.0665 |  |  | 
11 | B11 |  |  | 0.0613 | 1.73 | 
12 | B12 | 1.57 | 0.103 |  |  | 
13 | B13 |  |  | 0.0819 | 1.73 | 
14 | B14 |  |  |  |  | Phage binding ELISA signal, Anti-PSMA Fab in presence of PSMA antigen (PSMA Fab (006 PSMA Fab) [5]): 0.0923; Phage binding ELISA signal, Anti-PSMA Fab (PSMA Fab (006 PSMA Fab) [6]): 1.06
15 | B15 |  |  |  |  | Phage binding ELISA signal, Anti-PSMA Fab in presence of PSMA (PSMA Fab [1]): 0.0882; Phage binding ELISA signal, Anti-PSMA Fab (PSMA Fab [2]): 1.8
16 | B16 |  |  | 0.109 | 1.73 | 
17 | B17 |  |  | 0.0927 | 1.74 | 
18 | B18 |  |  |  |  | Phage binding ELISA signal, Anti-PSMA Fab in presence of PSMA antigen (PSMA Fab (006 PSMA Fab) [5]): 0.0581; Phage binding ELISA signal, Anti-PSMA Fab (PSMA Fab (006 PSMA Fab) [6]): 1.06
19 | B19 |  |  |  |  | Phage binding ELISA signal, Anti-PSMA Fab in presence of PSMA antigen (PSMA Fab (006 PSMA Fab) [5]): 0.069; Phage binding ELISA signal, Anti-PSMA Fab (PSMA Fab (006 PSMA Fab) [6]): 1.06
20 | B20 | 1.57 | 0.062 |  |  | 
21 | B21 |  |  | 0.104 | 1.74 | 

Row | Binder | Phage binding ELISA signal, Anti-PSMA Fab (Anti-PSMA Fab [3]) | Phage binding ELISA signal, Anti-PSMA Fab with PSMA antigen (Anti-PSMA Fab [4]) | phage binding ELISA signal, Anti-PSMA Fab in the presence of PSMA (PSMA Fab [7]) | Phage binding ELISA signal, Anti-PSMA Fab (PSMA Fab [8]) | further results
22 | B22 | 1.55 | 0.0802 |  |  | 
23 | B23 |  |  |  |  | Phage binding ELISA signal, Anti-PSMA Fab in presence of PSMA antigen (PSMA Fab (006 PSMA Fab) [5]): 0.0633; Phage binding ELISA signal, Anti-PSMA Fab (PSMA Fab (006 PSMA Fab) [6]): 1.08
24 | B24 | 1.55 | 0.0618 |  |  | 
25 | B25 |  |  |  |  | Phage binding ELISA signal, Anti-PSMA Fab in presence of PSMA antigen (PSMA Fab (006 PSMA Fab) [5]): 0.061; Phage binding ELISA signal, Anti-PSMA Fab (PSMA Fab (006 PSMA Fab) [6]): 1.06
26 | B26 |  |  |  |  | Phage binding ELISA signal, Anti-PSMA Fab in presence of PSMA antigen (PSMA Fab (006 PSMA Fab) [5]): 0.131; Phage binding ELISA signal, Anti-PSMA Fab (PSMA Fab (006 PSMA Fab) [6]): 1.06
27 | B27 |  |  |  |  | Phage binding ELISA signal, Anti-PSMA Fab in presence of PSMA antigen (PSMA Fab (006 PSMA Fab) [5]): 0.0797; Phage binding ELISA signal, Anti-PSMA Fab (PSMA Fab (006 PSMA Fab) [6]): 1.06
28 | B28 | 1.56 | 0.0662 |  |  | 
29 | B29 |  |  | 0.0669 | 1.74 | 
30 | B30 |  |  | 0.0628 | 1.73 | 
31 | B31 |  |  |  |  | Phage binding ELISA signal, Anti-PSMA Fab in presence of PSMA antigen (PSMA Fab (006 PSMA Fab) [5]): 0.0693; Phage binding ELISA signal, Anti-PSMA Fab (PSMA Fab (006 PSMA Fab) [6]): 1.05
32 | B32 | 1.55 | 0.105 |  |  | 
33 | B33 |  |  |  |  | Phage binding ELISA signal, Anti-PSMA Fab in presence of PSMA antigen (PSMA Fab (006 PSMA Fab) [5]): 0.0974; Phage binding ELISA signal, Anti-PSMA Fab (PSMA Fab (006 PSMA Fab) [6]): 1.06
34 | B34 |  |  |  |  | Phage binding ELISA signal, Anti-PSMA Fab in presence of PSMA (PSMA Fab [1]): 0.0793; Phage binding ELISA signal, Anti-PSMA Fab (PSMA Fab [2]): 1.79
35 | B35 |  |  |  |  | Phage binding ELISA signal, Anti-PSMA Fab in presence of PSMA (PSMA Fab [1]): 0.102; Phage binding ELISA signal, Anti-PSMA Fab (PSMA Fab [2]): 1.8
36 | B36 | 1.56 | 0.147 |  |  | 
37 | B37 | 1.54 | 0.104 |  |  | 
38 | B38 |  |  |  |  | Phage binding ELISA signal, Anti-PSMA Fab in presence of PSMA antigen (PSMA Fab (006 PSMA Fab) [5]): 0.0668; Phage binding ELISA signal, Anti-PSMA Fab (PSMA Fab (006 PSMA Fab) [6]): 1.07
39 | B39 |  |  | 0.0771 | 1.73 | 
40 | B40 |  |  | 0.0664 | 1.73 | 
41 | B41 |  |  | 0.0727 | 1.73 | 
42 | B42 |  |  | 0.0667 | 1.73 | 
